Values quoted from earlier work in article PMC9696485.

Target: integrin α6β4 (Homo sapiens) (UniProt P23229)
UniProt P23229, sequence (P23229 24-1130, chain 1 of 2): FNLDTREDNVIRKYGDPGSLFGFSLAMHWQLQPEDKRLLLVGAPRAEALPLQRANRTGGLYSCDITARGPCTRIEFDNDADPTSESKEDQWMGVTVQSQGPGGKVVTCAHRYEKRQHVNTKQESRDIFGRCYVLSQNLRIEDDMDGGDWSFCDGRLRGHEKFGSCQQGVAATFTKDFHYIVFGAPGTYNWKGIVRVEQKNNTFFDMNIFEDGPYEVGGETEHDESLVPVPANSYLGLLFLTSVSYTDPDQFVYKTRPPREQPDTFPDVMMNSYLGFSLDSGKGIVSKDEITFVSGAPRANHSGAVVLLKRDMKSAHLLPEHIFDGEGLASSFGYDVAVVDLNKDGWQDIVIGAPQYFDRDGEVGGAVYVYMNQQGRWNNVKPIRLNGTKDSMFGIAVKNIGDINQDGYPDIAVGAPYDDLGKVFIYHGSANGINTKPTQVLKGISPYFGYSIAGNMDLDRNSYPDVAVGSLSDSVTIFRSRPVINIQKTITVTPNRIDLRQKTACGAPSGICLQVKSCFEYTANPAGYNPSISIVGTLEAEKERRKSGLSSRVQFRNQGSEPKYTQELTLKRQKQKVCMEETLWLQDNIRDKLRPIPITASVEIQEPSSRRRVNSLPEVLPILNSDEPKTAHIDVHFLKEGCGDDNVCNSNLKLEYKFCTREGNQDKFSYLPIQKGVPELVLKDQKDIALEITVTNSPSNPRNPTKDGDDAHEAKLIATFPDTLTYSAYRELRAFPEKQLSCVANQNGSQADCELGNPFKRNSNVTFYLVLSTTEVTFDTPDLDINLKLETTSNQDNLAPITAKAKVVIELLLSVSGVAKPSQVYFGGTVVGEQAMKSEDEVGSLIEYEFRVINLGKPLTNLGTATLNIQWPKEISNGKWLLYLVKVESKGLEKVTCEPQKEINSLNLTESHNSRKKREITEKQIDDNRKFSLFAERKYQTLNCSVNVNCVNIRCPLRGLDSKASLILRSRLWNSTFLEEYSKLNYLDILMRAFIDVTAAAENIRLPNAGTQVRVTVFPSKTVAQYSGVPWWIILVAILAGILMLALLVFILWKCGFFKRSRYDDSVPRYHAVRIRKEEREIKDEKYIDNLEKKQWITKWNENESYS
UniProt P23229, sequence (P16144 28-1822, chain 2 of 2, further chain): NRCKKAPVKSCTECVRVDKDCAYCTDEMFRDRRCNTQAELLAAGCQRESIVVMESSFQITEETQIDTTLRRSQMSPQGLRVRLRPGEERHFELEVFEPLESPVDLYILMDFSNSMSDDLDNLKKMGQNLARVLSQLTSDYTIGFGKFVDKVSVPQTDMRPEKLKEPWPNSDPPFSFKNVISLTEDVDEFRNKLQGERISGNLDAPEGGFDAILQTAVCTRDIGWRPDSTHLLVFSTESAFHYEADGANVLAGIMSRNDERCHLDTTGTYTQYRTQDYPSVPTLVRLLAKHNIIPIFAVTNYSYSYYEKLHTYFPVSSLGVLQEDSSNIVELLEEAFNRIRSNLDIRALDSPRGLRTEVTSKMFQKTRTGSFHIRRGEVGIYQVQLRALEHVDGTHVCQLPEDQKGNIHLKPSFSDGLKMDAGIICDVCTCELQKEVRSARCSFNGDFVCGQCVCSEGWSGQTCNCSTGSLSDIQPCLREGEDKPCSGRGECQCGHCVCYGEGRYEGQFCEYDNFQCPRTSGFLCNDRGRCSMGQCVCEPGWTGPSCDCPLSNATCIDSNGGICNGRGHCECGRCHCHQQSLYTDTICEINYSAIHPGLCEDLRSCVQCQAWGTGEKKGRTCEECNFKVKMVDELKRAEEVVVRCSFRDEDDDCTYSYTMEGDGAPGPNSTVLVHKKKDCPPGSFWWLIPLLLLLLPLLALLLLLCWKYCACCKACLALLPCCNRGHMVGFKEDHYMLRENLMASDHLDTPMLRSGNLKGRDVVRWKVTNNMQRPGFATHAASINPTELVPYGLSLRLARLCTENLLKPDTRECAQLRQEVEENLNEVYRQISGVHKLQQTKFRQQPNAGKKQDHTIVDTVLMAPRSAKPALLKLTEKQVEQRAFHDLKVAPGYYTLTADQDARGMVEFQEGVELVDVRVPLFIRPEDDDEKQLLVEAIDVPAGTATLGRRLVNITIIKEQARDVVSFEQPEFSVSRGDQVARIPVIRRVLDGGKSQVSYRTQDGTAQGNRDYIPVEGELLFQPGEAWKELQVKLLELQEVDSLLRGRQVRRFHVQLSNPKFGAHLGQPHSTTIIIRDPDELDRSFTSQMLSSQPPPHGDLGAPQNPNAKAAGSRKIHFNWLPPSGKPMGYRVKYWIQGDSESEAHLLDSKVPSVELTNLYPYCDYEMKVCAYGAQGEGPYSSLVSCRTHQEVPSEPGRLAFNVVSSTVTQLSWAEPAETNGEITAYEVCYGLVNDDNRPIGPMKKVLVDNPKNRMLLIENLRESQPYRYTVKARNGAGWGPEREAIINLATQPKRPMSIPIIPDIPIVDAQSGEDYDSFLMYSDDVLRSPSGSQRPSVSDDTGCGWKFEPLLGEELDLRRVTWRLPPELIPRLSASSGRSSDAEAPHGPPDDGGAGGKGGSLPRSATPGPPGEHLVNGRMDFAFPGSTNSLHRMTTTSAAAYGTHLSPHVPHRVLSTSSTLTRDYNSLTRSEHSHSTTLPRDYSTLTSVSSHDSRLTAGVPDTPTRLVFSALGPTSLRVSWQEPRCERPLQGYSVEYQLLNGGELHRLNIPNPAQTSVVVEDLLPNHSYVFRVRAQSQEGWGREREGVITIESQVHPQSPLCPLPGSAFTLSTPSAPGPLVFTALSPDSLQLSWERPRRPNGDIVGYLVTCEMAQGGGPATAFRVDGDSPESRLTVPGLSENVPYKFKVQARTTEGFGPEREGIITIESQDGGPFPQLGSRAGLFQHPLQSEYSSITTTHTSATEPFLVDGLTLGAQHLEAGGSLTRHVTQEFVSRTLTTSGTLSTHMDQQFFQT

AG86 laminin peptide
Kd: 2500 nM
